Values quoted from earlier work, collected in publication PMC5497954.

Molecular target: IL2Rβγ (Homo sapiens) (UniProt P14784)
Sequence of UniProt P14784 (P14784 27-240, chain 1 of 2): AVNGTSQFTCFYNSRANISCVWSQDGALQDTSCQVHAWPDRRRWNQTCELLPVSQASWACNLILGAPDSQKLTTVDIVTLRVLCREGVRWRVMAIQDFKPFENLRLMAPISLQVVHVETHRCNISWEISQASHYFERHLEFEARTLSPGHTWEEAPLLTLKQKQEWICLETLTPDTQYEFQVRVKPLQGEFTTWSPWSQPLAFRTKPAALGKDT
Sequence of UniProt P14784 (P31785 23-262, chain 2 of 2, further chain): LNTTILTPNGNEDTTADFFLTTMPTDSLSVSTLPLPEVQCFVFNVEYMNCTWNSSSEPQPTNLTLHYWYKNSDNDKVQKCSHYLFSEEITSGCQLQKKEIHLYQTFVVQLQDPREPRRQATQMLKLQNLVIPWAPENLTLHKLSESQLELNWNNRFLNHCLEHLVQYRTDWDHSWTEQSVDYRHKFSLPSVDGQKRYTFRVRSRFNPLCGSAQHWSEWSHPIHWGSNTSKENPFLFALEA

## IL2 (from UniProt P60568)
  Kd: 1 nM
